From patent US20210046181A1 (VALITOR, published 2021)
Blank lines part the entries; values can stand above or below the binder they belong to.

How the values were obtained:
[1] = target: T1, mouse TNFα (mouse, UniProt P06804 80-235); test: cell-based or functional assay
T1 sequence (looked up): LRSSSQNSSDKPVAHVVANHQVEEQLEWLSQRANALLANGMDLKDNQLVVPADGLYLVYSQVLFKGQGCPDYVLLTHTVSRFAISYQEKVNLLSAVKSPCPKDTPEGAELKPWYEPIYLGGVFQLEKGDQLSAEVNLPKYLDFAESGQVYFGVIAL

[2] = target: T1, mouse TNFα; test: BLI (ForteBio Octet Red), target adsorbed on the probe
[3] = target: IL-1β; test: as above
Sequence of IL-1β (P01584 117-269): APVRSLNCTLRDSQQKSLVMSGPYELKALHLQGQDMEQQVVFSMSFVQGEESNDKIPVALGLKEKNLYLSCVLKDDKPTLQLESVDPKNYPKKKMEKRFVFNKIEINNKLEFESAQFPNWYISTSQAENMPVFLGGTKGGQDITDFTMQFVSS

Kd [2]: 0.17 nM
B1: (anti-(mouse)TNFα VHH antibody-EMCH)273-HyA (2000 kDa) (VHH)
VHH: QVQLQDSGGGLVQAGGSLRLSCAASGGTFSSIIMAWFRQAPGKEREFVGAVSWSGGTTVYADSVLGRFEISRDSARKSVYLQMNSLKPEDTAVYYCAARPYQKYNWASASYNVWGQGTQVTVSS
modifications: engineered cysteine thiol linked through EMCH (maleimide) to hyaluronic acid (HyA, 2000 kDa)
notes: Multivalent peptide-polymer conjugate: about 273 VHH per HyA chain
IC50 (nM), Bioactivity Data; assay not given, the filing describes IC50 from the L929 fibroblast cell survival assay with TNFα [1]: 120 nM

Kd [3]: 0.84 nM
B2: (anti-IL-1β scFv antibody-EMCH)15-HyA (2000 kDa) (scFv)
scFv: SNAEIVMTQSPSTLSASVGDRVIITCQASQSIDNWLSWYQQKPGKAPKLLIYRASTLASGVPSRFSGSGSGAEFTLTISSLQPDDFATYYCQNTGGGVSIAFGQGTKLTVLGGGGGSGGGGSGGGGSGGGGSEVQLVESGGGLVQPGGSLRLSCTASGFSLSSAAMAWVRQAPGKGLEWVGIIYDSASTYYASWAKGRFTISRDTSKNTVYLQMNSLRAEDTAVYYCARERAIFSGDFVLWGQGTLVTVSSSPSTPPTPSPSTPPGGC
modifications: engineered cysteine thiol linked through EMCH (maleimide) to hyaluronic acid (HyA, 2000 kDa)

Kd [3]: 0.02 nM
B3: (anti-IL-1β scFv antibody-EMCH)-CMC (700 kDa) (scFv)
scFv: B2 scFv
modifications: engineered cysteine thiol linked through EMCH (maleimide) to carboxymethyl cellulose (CMC, 700 kDa)
